Measured values: patent US9494585B2, “Tools for the identification of Lingo-1, Lingo-2, Lingo-3 and Lingo-4 ligands, and uses thereof” (CENTRE NATIONAL DE LA RECHERCHE SCIENTIFIQUE-CNRS, priority 2010, dated 2016)

B1: Lingo-1-HA: whole human Lingo-1 protein (amino acids 1-620) tagged with HA (protein)
chain: CPPRCECSAQDRAVLCHRKRFVAVPEGIPTETRLLDLGKNRIKTLNQDEFASFPHLEELELNENIVSAVEPGAFNNLFNLRTLGLRSNRLKLIPLGVFTGLSNLTKLDISENKIVILLDYMFQDLYNLKSLEVGDNDLVYISHRAFSGLNSLEQLTLEKCNLTSIPTEALSHLHGLIVLRLRHLNINAIRDYSFKRLYRLKVLEISHWPYLDTMTPNCLYGLNLTSLSITHCNLTAVPYLAVRHLVYLRFLNLSYNPISTIEGSMLHELLRLQEIQLVGGQLAVVEPYAFRGLNYLRVLNVSGNQLTTLEESVFHSVGNLETLILDSNPLACDCRLLWVFRRRWRLNFNRQQPTCATPEFVQGKEFKDFPDVLLPNYFTCRRARIRDRKAQQVFVDEGHTVQFVCRADGDPPPAILWLSPRKHLVSAKSNGRLTVFPDGTLEVRYAQVQDNGTYLCIAANAGGNDSMPAHLHVRSYSPDWPHQPNKTFAFISNQPGEGEANSTRATVPFPFDIKTLIIATTMGFISFLGVVLFCLVLLFLWSRGKGNTKHNIEIEYVPRKSDAGISSADAPRKFNMKMI
modifications: left off: small tags and cut ends
notes: whole human Lingo-1 protein (amino acids 1-620) tagged with HA
B2: DN-Lingo-1-HA: HA-tagged dominant negative of Lingo-1 (amino acids 1-577, without cytoplasmic portion), known Lingo-1 inhibitor (protein)
chain: CPPRCECSAQDRAVLCHRKRFVAVPEGIPTETRLLDLGKNRIKTLNQDEFASFPHLEELELNENIVSAVEPGAFNNLFNLRTLGLRSNRLKLIPLGVFTGLSNLTKLDISENKIVILLDYMFQDLYNLKSLEVGDNDLVYISHRAFSGLNSLEQLTLEKCNLTSIPTEALSHLHGLIVLRLRHLNINAIRDYSFKRLYRLKVLEISHWPYLDTMTPNCLYGLNLTSLSITHCNLTAVPYLAVRHLVYLRFLNLSYNPISTIEGSMLHELLRLQEIQLVGGQLAVVEPYAFRGLNYLRVLNVSGNQLTTLEESVFHSVGNLETLILDSNPLACDCRLLWVFRRRWRLNFNRQQPTCATPEFVQGKEFKDFPDVLLPNYFTCRRARIRDRKAQQVFVDEGHTVQFVCRADGDPPPAILWLSPRKHLVSAKSNGRLTVFPDGTLEVRYAQVQDNGTYLCIAANAGGNDSMPAHLHVRSYSPDWPHQPNKTFAFISNQPGEGEANSTRATVPFPFDIKTLIIATTMGFISFLGVVLFCLV
modifications: left off: small tags and cut ends

Target: T1, Lingo-1-RLuc/Lingo-1-YFP dimer (Homo sapiens, UniProt Q96FE5)
T1 construct: expressed in transfected cells; host or cells: HEK-293 (transient calcium phosphate transfection)
Experiment: BRET measurement of Lingo-1 dimerization (Lingo-1-RLuc/Lingo-1-YFP) on live transfected HEK-293 cells
Assay type: cell-based
Settings: for BRET signal obtained between Lingo-1-RLuc and Lingo-1-YFP: HEK-293, HA-tagged construct co-expressed (800 ng), constant donor/acceptor ratio, 48 h after transfection, p<0.001 vs control
Protocol: For the BRET experiments, the HEK-293 cells cultured in 6-well plates, pre-treated with collagen, are transiently transfected using the calcium phosphate technique. Briefly, the plasmid DNA is mixed into a phosphate buffer (2×BBS, composed in particular of 50 mM BES (Cat No. B4554, Sigma), 280 mM NaCl, 1.5 mM Na2HPO4, adjusted to pH 6.95) with calcium chloride (2.5 M). After incubation for 15 minutes, the precipitate obtained is applied to the cells for 24 hours. The cells are then rinsed and incubated for a further 24 hours in a culture medium without antibiotics.
The cells are resuspended in a physiological buffer (HBSS for Hank's Buffered Salt Solution (Cat No. 14025100, Gibco, composed in particular of calcium chloride, magnesium chloride, magnesium sulfate, potassium chloride, monobasic potassium phosphate, sodium bicarbonate, sodium chloride, anhydrous dibasic sodium phosphate)) 48 hours after transfection and distributed into 96-well plates (100 000 to 200 000 cells per well) or into 384-well plates (20 000 to 40 000 cells per well). The fluorescence and luminescence readings are carried out at ambient temperature on a microplate reader, Mithras LB 940 (Berthold). The yield from transfection of the Lingo-1-eYFP, Lingo-2-eYFP, Lingo-3-eYFP or Lingo-4-eYFP construct is evaluated by reading the fluorescence of the eYFP emitted at 530-540 nm after excitation at 480 nm. The yield from transfection of the Lingo-1-RLuc, Lingo-2-RLuc, Lingo-3-RLuc or Lingo-4-RLuc construct is evaluated by reading the luminescence (1 second) obtained immediately after the addition of the coelenterazine substrate (5 μM).
The measurement of the BRET signal is carried out immediately after the addition of coelenterazine. […] The energy transfer which takes place in the fusion protein between the Rluc and the eYFP causes the appearance of a fluorescence signal with a maximum emission at 530-540 nm, characteristic of the spectral properties of eYFP. […]
The BRET reading was carried out at ambient temperature on a microplate reader, Mithras LB 940 (Berthold), using the new BRET filters. […]

| Molecule | BRET signal obtained between Lingo-1-RLuc and Lingo-1-YFP | BRET signal obtained between the Lingo-1-RLuc and Lingo-1-YFP proteins (HEK-293, Lingo-1-RLuc 250 ng/Lingo-1-YFP 1500 ng, new filters, HA-tagged protein at 0-2600 ng plasmid) |
| --- | --- | --- |
| B1 | significantly decreased |  |
| B2 | significantly decreased | significantly decreased |
